We go through 62 variants from the MegaScale stability set (Tsuboyama et al. 2023).

B1: EHEE_rd2_1257 (parent)
chain: EEERTFTNEEEARKAKKEAEKRGLRVTVTKDGTTWRVRIG

This data set covers variants of B1. Put plainly: folding stability dG (cDNA display proteolysis); higher = more stable. As to conditions: PBS, room temperature.
On to EEERTFTNEEEARKAKKEAEKRGLRVTVTKDGTTMRVRIG [W35M], for which the “folding stability dG” value is 0.332 kcal/mol. The result for EEERTFTNEEEARKAKKEAEKRGLRVTVTKDGTTVRVRIG [W35V] reads 0.55 kcal/mol. On to EEERTFTNEEEARKAKKEAEKRGLRVTVTKDGTTWRWRIG [V37W], for which the “folding stability dG” value worked out at 0.056 kcal/mol. For EEERTFTNEEEARKAKKEAEKRGLRVTVTKDGTTWRIRIG [V37I] the value was 1.7 kcal/mol. The result for EEERTFTNEEEARKAKKEAEKRGLRVTVTKDGTTWRLRIG [V37L] reads 2.17 kcal/mol; that for EEERTFTNEEEARKAKKEAEKRGLRVTVTKDYTTWRVRIG [G32Y], 0.01 kcal/mol; that for EEERTFTNEEEARKAKKEAEKRGLRVTVTKDMTTWRVRIG [G32M], 0.351 kcal/mol. The result for EEERTFTNEEEARKAKKEAEKRGLRVTVTKDGTGWRVRIG [T34G] reads 1.83 kcal/mol; that for EEERTFTNEEEARKAKKEAEKRGLRVTVTKDGTNWRVRIG [T34N], 2.02 kcal/mol. On to EEERTFTNEEEARKAKGEAEKRGLRVTVTKDGTTWRVRIG [K17G], for which the “folding stability dG” value was 1.78 kcal/mol. The result for EEERTFTNEEEARKAKKEAKKRGLRVTVTKDGTTWRVRIG [E20K] reads 1.14 kcal/mol. The result for EEERTFTNEEEARKAKKEAWKRGLRVTVTKDGTTWRVRIG [E20W] reads 1.27 kcal/mol. The result for EEERTFTNEEEARKAKKEAFKRGLRVTVTKDGTTWRVRIG [E20F] reads 1.02 kcal/mol. In the case of EEERTFTNEEEARKAKKEANKRGLRVTVTKDGTTWRVRIG [E20N], the “folding stability dG” value was 0.952 kcal/mol.

Consider EEERTFTNEEEARKAKKEALKRGLRVTVTKDGTTWRVRIG [E20L], for which the “folding stability dG” value came out at 1.69 kcal/mol. The result for EEERTFTNEEEARKAKKEAEKRNLRVTVTKDGTTWRVRIG [G23N] reads 0.986 kcal/mol. For EEERTFTNEEEARKAKKEAEKRGLRVTVTIDGTTWRVRIG [K30I] the value was 1.66 kcal/mol; for EEERTFTNEEEARKAKKEAEKRGLRVTVTADGTTWRVRIG [K30A], 1.53 kcal/mol; for EEERTFTNEEEARKAKKEAEKRGLRVTVTSDGTTWRVRIG [K30S], 2.14 kcal/mol. As for EEERTFTNEEEARKAKKAAEKRGLRVTVTKDGTTWRVRIG [E18A], the “folding stability dG” value came to 1.84 kcal/mol.

On to EEERTFTNEEEARKAKKKAEKRGLRVTVTKDGTTWRVRIG [E18K], for which the “folding stability dG” value came to 1.11 kcal/mol. The result for EEERTFTNEEEARKAKKDAEKRGLRVTVTKDGTTWRVRIG [E18D] reads 1.91 kcal/mol.

With EEERTFTNEVEARKAKKEAEKRGLRVTVTKDGTTWRVRIG [E10V], the “folding stability dG” value was determined as 1.86 kcal/mol. For EEERTFTNEYEARKAKKEAEKRGLRVTVTKDGTTWRVRIG [E10Y] the value was 2.21 kcal/mol; for EEERTFTNEQEARKAKKEAEKRGLRVTVTKDGTTWRVRIG [E10Q], 2.03 kcal/mol.

EEERTFTNEPEARKAKKEAEKRGLRVTVTKDGTTWRVRIG [E10P]: the “folding stability dG” value was 1.38 kcal/mol. As to EEERTFTNENEARKAKKEAEKRGLRVTVTKDGTTWRVRIG [E10N], the “folding stability dG” value amounted to 1.86 kcal/mol. The result for EEERTFTNEDEARKAKKEAEKRGLRVTVTKDGTTWRVRIG [E10D] reads 2.01 kcal/mol; that for EEEITFTNEEEARKAKKEAEKRGLRVTVTKDGTTWRVRIG [R4I], 2.38 kcal/mol; that for EEETTFTNEEEARKAKKEAEKRGLRVTVTKDGTTWRVRIG [R4T], 1.61 kcal/mol. Take EEEATFTNEEEARKAKKEAEKRGLRVTVTKDGTTWRVRIG [R4A]: the “folding stability dG” value worked out at 1.59 kcal/mol.

Regarding EEEVTFTNEEEARKAKKEAEKRGLRVTVTKDGTTWRVRIG [R4V], the “folding stability dG” value amounted to 1.96 kcal/mol.

For EEERTFTNEEEARKAKKEAEKRGLKVTVTKDGTTWRVRIG [R25K], the “folding stability dG” value turned out to be 2.06 kcal/mol.

Consider EEERTFTGEEEARKAKKEAEKRGLRVTVTKDGTTWRVRIG [N8G], for which the “folding stability dG” value stood at 0.865 kcal/mol. For EEERTFTYEEEARKAKKEAEKRGLRVTVTKDGTTWRVRIG [N8Y] the value was 0.987 kcal/mol; for EEERTFTNEEEARKAKKEAEKRGLRVTVTKDGATWRVRIG [T33A], 2.13 kcal/mol. For EEERTFTNEEEARKAKKEAEKRGLRVTVTKDGWTWRVRIG [T33W] the value was 1.65 kcal/mol. For EEERTFTNEEEARKAKKEAEKRGLRVTVTKDGVTWRVRIG [T33V], the “folding stability dG” value turned out to be 1.84 kcal/mol. For EEERTFTNEEEARKAKKEAEKRGLRVTVTKDGDTWRVRIG [T33D] the value was 3.11 kcal/mol. For EEERTFTNEEEARKAKKEAEKRGLRVTVTKDGMTWRVRIG [T33M] the value was 2 kcal/mol; for EEERTLTNEEEARKAKKEAEKRGLRVTVTKDGTTWRVRIG [F6L], 0.227 kcal/mol.

Regarding EEERTVTNEEEARKAKKEAEKRGLRVTVTKDGTTWRVRIG [F6V], the “folding stability dG” value was found to be 0.21 kcal/mol. On to EEERTFTNEEEARKAKKEAEKRGLRVKVTKDGTTWRVRIG [T27K], for which the “folding stability dG” value was 1.43 kcal/mol.

Take EEERTFTNEEEARKAKKEAEKRGLRVAVTKDGTTWRVRIG [T27A]: the “folding stability dG” value amounted to 1.19 kcal/mol.

With EEERTFTNEEEARKAKKEAEKRGLRVEVTKDGTTWRVRIG [T27E], the “folding stability dG” value stood at 1.64 kcal/mol. For EEERTFTNEEEARKAKKEAEKRGLRVYVTKDGTTWRVRIG [T27Y] the value was 1.92 kcal/mol; for EEERTFTNEEEARKAKKEAEKRGLRWTVTKDGTTWRVRIG [V26W], 0.008 kcal/mol; for EEERTFTNEEEARKAKKEAEGRGLRVTVTKDGTTWRVRIG [K21G], 2.11 kcal/mol. The result for EEERTFTNEEEARKAKKEAEFRGLRVTVTKDGTTWRVRIG [K21F] reads 1.89 kcal/mol.

Take EEERTFTNEEEARKAKKEAEKRGLRVTVTKIGTTWRVRIG [D31I]: the “folding stability dG” value is 2.22 kcal/mol. For EEERTFTNEEEARKAKKEAEKRGLRVTVTKNGTTWRVRIG [D31N] the value was 1.57 kcal/mol.

As to EEERTFTNEEEARKAKKEAEKRGLRVTVTKKGTTWRVRIG [D31K], the “folding stability dG” value worked out at 1.34 kcal/mol. For EEERTFTNEEEARKAKKEAEKRGLRVTVTKCGTTWRVRIG [D31C] the value was 2.04 kcal/mol. The result for EEERTFTNEEEARKAKKEAEKRGDRVTVTKDGTTWRVRIG [L24D] reads 0.447 kcal/mol; that for EEERTFTNEEEARKAKKEAEKRGTRVTVTKDGTTWRVRIG [L24T], 0.162 kcal/mol; that for EEERTFTNEEEARKAKKEAEKRGRRVTVTKDGTTWRVRIG [L24R], 1.19 kcal/mol. The result for EEERTFTNEEEARKAKKEAEKRGFRVTVTKDGTTWRVRIG [L24F] reads 2.15 kcal/mol; that for EEERTFTNEEEARKAKKEAEKRGNRVTVTKDGTTWRVRIG [L24N], 0.631 kcal/mol; that for EEERTFTNEEEARKAKKEAEKRGHRVTVTKDGTTWRVRIG [L24H], 1.46 kcal/mol.

Turning to EEERTFTNEEEARKAKKEAEKRGMRVTVTKDGTTWRVRIG [L24M], the “folding stability dG” value is 1.79 kcal/mol.

In the case of EEERTFTNEEEARKAKKEKEKRGLRVTVTKDGTTWRVRIG [A19K], the “folding stability dG” value was 0.052 kcal/mol. For EEERTFTNEEEARKAKKELEKRGLRVTVTKDGTTWRVRIG [A19L] the value was 2.46 kcal/mol.
